The text below walks through data of patent US20160113911A1, “METHODS AND COMPOSITIONS FOR THE TREATMENT OF CANCER” (THE GENERAL HOSPITAL CORPORATION, priority 2013, published 2016).

One data set has as its system H3K36me3. Put plainly: H3K36 demethylase activity of KDM4A variants in transfected cells (immunofluorescence). The format is cell-based. Details: key: + indicates active; − indicates inactive; +/− indicates partial acitivty. The following applies: KDM4A mutations. On the procedure:
The indicated NHF-tagged KDM4A deletion constructs were transfected into RPE cells grown on coverslips in 10 cm dishes using X-tremeGENE 9™ DNA transfection reagent (Roche). H3K36me3 and subcellular localization were assayed by examining transfected cells (positive for HA staining; HA.11 Covance) following fixation in 3.7% PFA in PBS (Whetstine et al., 2006).
All immunofluorescence experiments were performed as in (Black et al., 2013). For the localization experiment a minimum of 50 cells were blinded and scored. For the catalytic activity, cells overexpressing a high level of KDM4A WT or SNP-A482 were analyzed in a non quantitative manner.

The test system of a further data set is H3K9me3. Nature of the data set: H3K9 demethylase activity of KDM4 variants in transfected cells. The format is cell-based. Details: key: + indicates active; − indicates inactive; +/− indicates partial acitivty. The following applies: KDM4A mutations.

B1: 2A-R152W*: KDM4A mutation (protein, UniProt O75164 2-1064, looked up, variant R152W)
Lysine-specific demethylase 4A: ASESETLNPSARIMTFYPTMEEFRNFSRYIAYIESQGAHRAGLAKVVPPKEWKPRASYDDIDDLVIPAPIQQLVTGQSGLFTQYNIQKKAMTVREFRKIANSDKYCTPRYSEFEELERKYWKNLTFNPPIYGADVNGTLYEKHVDEWNIGWLRTILDLVEKESGITIEGVNTPYLYFGMWKTSFAWHTEDMDLYSINYLHFGEPKSWYSVPPEHGKRLERLAKGFFPGSAQSCEAFLRHKMTLISPLMLKKYGIPFDKVTQEAGEFMITFPYGYHAGFNHGFNCAESTNFATRRWIEYGKQAVLCSCRKDMVKISMDVFVRKFQPERYKLWKAGKDNTVIDHTLPTPEAAEFLKESELPPRAGNEEECPEEDMEGVEDGEEGDLKTSLAKHRIGTKRHRVCLEIPQEVSQSELFPKEDLSSEQYEMTECPAALAPVRPTHSSVRQVEDGLTFPDYSDSTEVKFEELKNVKLEEEDEEEEQAAAALDLSVNPASVGGRLVFSGSKKKSSSSLGSGSSRDSISSDSETSEPLSCRAQGQTGVLTVHSYAKGDGRVTVGEPCTRKKGSAARSFSERELAEVADEYMFSLEENKKSKGRRQPLSKLPRHHPLVLQECVSDDETSEQLTPEEEAEETEAWAKPLSQLWQNRPPNFEAEKEFNETMAQQAPHCAVCMIFQTYHQVEFGGFNQNCGNASDLAPQKQRTKPLIPEMCFTSTGCSTDINLSTPYLEEDGTSILVSCKKCSVRVHASCYGVPPAKASEDWMCSRCSANALEEDCCLCSLRGGALQRANDDRWVHVSCAVAILEARFVNIAERSPVDVSKIPLPRFKLKCIFCKKRRKRTAGCCVQCSHGRCPTAFHVSCAQAAGVMMQPDDWPFVVFITCFRHKIPNLERAKGALQSITAGQKVISKHKNGRFYQCEVVRLTTETFYEVNFDDGSFSDNLYPEDIVSQDCLQFGPPAEGEVVQVRWTDGQVYGAKFVASHPIQMYQVEFEDGSQLVVKRDDVYTLDEELPKRVKSRLSVASDMRFNEIFTEKEVKQEKKRQRVINSRYREDYIEPALYRAIME
With B1, the “H3k36 Demethylase Activity” value in the data set with H3K36me3 is recorded as “+”. Further, the “H3k9 Demethylase Activity” value in the data set with H3K9me3 is “+”.

B2: 2A-I87V: KDM4A mutation (protein)
chain: MASESETLNPSARIMTFYPTMEEFRNFSRYIAYIESQGAHRAGLAKVVPPKEWKPRASYDDIDDLVIPAPIQQLVTGQSGLFTQYNVQKKAMTVREFRKIANSDKYCTPRYSEFEELERKYWKNLTFNPPIYGADVNGTLYEKHVDEWNIGRLRTILDLVEKESGITIEGVNTPYLYFGMWKTSFAWHTEDMDLYSINYLHFGEPKSWYSVPPEHGKRLERLAKGFFPGSAQSCEAFLRHKMTLISPLMLKKYGIPFDKVTQEAGEFMITFPYGYHAGFNHGFNCAESTNFATRRWIEYGKQAVLCSCRKDMVKISMDVFVRKFQPERYKLWKAGKDNTVIDHTLPTPEAAEFLKESELPPRAGNEEECPEEDMEGVEDGEEGDLKTSLAKHRIGTKRHRVCLEIPQEVSQSELFPKEDLSSEQYEMTECPAALAPVRPTHSSVRQVEDGLTFPDYSDSTEVKFEELKNVKLEEEDEEEEQAAAALDLSVNPASVGGRLVFSGSKKKSSSSLGSGSSRDSISSDSETSEPLSCRAQGQTGVLTVHSYAKGDGRVTVGEPCTRKKGSAARSFSERELAEVADEYMFSLEENKKSKGRRQPLSKLPRHHPLVLQECVSDDETSEQLTPEEEAEETEAWAKPLSQLWQNRPPNFEAEKEFNETMAQQAPHCAVCMIFQTYHQVEFGGFNQNCGNASDLAPQKQRTKPLIPEMCFTSTGCSTDINLSTPYLEEDGTSILVSCKKCSVRVHASCYGVPPAKASEDWMCSRCSANALEEDCCLCSLRGGALQRANDDRWVHVSCAVAILEARFVNIAERSPVDVSKIPLPRFKLKCIFCKKRRKRTAGCCVQCSHGRCPTAFHVSCAQAAGVMMQPDDWPFVVFITCFRHKIPNLERAKGALQSITAGQKVISKHKNGRFYQCEVVRLTTETFYEVNFDDGSFSDNLYPEDIVSQDCLQFGPPAEGEVVQVRWTDGQVYGAKFVASHPIQMYQVEFEDGSQLVVKRDDVYTLDEELPKRVKSRLSVASDMRFNEIFTEKEVKQEKKRQRVINSRYREDYIEPALYRAIME
Regarding B2, the “H3k36 Demethylase Activity” value with H3K36me3 was “+”. For the same molecule, the “H3k9 Demethylase Activity” value in the data set on H3K9me3 is on record as “+”.

B3: 2A-V919M: KDM4A mutation (protein)
chain: MASESETLNPSARIMTFYPTMEEFRNFSRYIAYIESQGAHRAGLAKVVPPKEWKPRASYDDIDDLVIPAPIQQLVTGQSGLFTQYNIQKKAMTVREFRKIANSDKYCTPRYSEFEELERKYWKNLTFNPPIYGADVNGTLYEKHVDEWNIGRLRTILDLVEKESGITIEGVNTPYLYFGMWKTSFAWHTEDMDLYSINYLHFGEPKSWYSVPPEHGKRLERLAKGFFPGSAQSCEAFLRHKMTLISPLMLKKYGIPFDKVTQEAGEFMITFPYGYHAGFNHGFNCAESTNFATRRWIEYGKQAVLCSCRKDMVKISMDVFVRKFQPERYKLWKAGKDNTVIDHTLPTPEAAEFLKESELPPRAGNEEECPEEDMEGVEDGEEGDLKTSLAKHRIGTKRHRVCLEIPQEVSQSELFPKEDLSSEQYEMTECPAALAPVRPTHSSVRQVEDGLTFPDYSDSTEVKFEELKNVKLEEEDEEEEQAAAALDLSVNPASVGGRLVFSGSKKKSSSSLGSGSSRDSISSDSETSEPLSCRAQGQTGVLTVHSYAKGDGRVTVGEPCTRKKGSAARSFSERELAEVADEYMFSLEENKKSKGRRQPLSKLPRHHPLVLQECVSDDETSEQLTPEEEAEETEAWAKPLSQLWQNRPPNFEAEKEFNETMAQQAPHCAVCMIFQTYHQVEFGGFNQNCGNASDLAPQKQRTKPLIPEMCFTSTGCSTDINLSTPYLEEDGTSILVSCKKCSVRVHASCYGVPPAKASEDWMCSRCSANALEEDCCLCSLRGGALQRANDDRWVHVSCAVAILEARFVNIAERSPVDVSKIPLPRFKLKCIFCKKRRKRTAGCCVQCSHGRCPTAFHVSCAQAAGVMMQPDDWPFVVFITCFRHKIPNLERAKGALQSITAGQKVISKHKNGRFYQCEMVRLTTETFYEVNFDDGSFSDNLYPEDIVSQDCLQFGPPAEGEVVQVRWTDGQVYGAKFVASHPIQMYQVEFEDGSQLVVKRDDVYTLDEELPKRVKSRLSVASDMRFNEIFTEKEVKQEKKRQRVINSRYREDYIEPALYRAIME
As for B3, the “H3k36 Demethylase Activity” value in the data set with H3K36me3 was “+”.

B4: 2A-K123I: KDM4A mutation (protein)
chain: MASESETLNPSARIMTFYPTMEEFRNFSRYIAYIESQGAHRAGLAKVVPPKEWKPRASYDDIDDLVIPAPIQQLVTGQSGLFTQYNIQKKAMTVREFRKIANSDKYCTPRYSEFEELERKYWINLTFNPPIYGADVNGTLYEKHVDEWNIGRLRTILDLVEKESGITIEGVNTPYLYFGMWKTSFAWHTEDMDLYSINYLHFGEPKSWYSVPPEHGKRLERLAKGFFPGSAQSCEAFLRHKMTLISPLMLKKYGIPFDKVTQEAGEFMITFPYGYHAGFNHGFNCAESTNFATRRWIEYGKQAVLCSCRKDMVKISMDVFVRKFQPERYKLWKAGKDNTVIDHTLPTPEAAEFLKESELPPRAGNEEECPEEDMEGVEDGEEGDLKTSLAKHRIGTKRHRVCLEIPQEVSQSELFPKEDLSSEQYEMTECPAALAPVRPTHSSVRQVEDGLTFPDYSDSTEVKFEELKNVKLEEEDEEEEQAAAALDLSVNPASVGGRLVFSGSKKKSSSSLGSGSSRDSISSDSETSEPLSCRAQGQTGVLTVHSYAKGDGRVTVGEPCTRKKGSAARSFSERELAEVADEYMFSLEENKKSKGRRQPLSKLPRHHPLVLQECVSDDETSEQLTPEEEAEETEAWAKPLSQLWQNRPPNFEAEKEFNETMAQQAPHCAVCMIFQTYHQVEFGGFNQNCGNASDLAPQKQRTKPLIPEMCFTSTGCSTDINLSTPYLEEDGTSILVSCKKCSVRVHASCYGVPPAKASEDWMCSRCSANALEEDCCLCSLRGGALQRANDDRWVHVSCAVAILEARFVNIAERSPVDVSKIPLPRFKLKCIFCKKRRKRTAGCCVQCSHGRCPTAFHVSCAQAAGVMMQPDDWPFVVFITCFRHKIPNLERAKGALQSITAGQKVISKHKNGRFYQCEVVRLTTETFYEVNFDDGSFSDNLYPEDIVSQDCLQFGPPAEGEVVQVRWTDGQVYGAKFVASHPIQMYQVEFEDGSQLVVKRDDVYTLDEELPKRVKSRLSVASDMRFNEIFTEKEVKQEKKRQRVINSRYREDYIEPALYRAIME
Regarding B4, the “H3k36 Demethylase Activity” value in the data set on H3K36me3 was “+”.

B5: 2A-E113K: KDM4A mutation (protein)
chain: MASESETLNPSARIMTFYPTMEEFRNFSRYIAYIESQGAHRAGLAKVVPPKEWKPRASYDDIDDLVIPAPIQQLVTGQSGLFTQYNIQKKAMTVREFRKIANSDKYCTPRYSKFEELERKYWKNLTFNPPIYGADVNGTLYEKHVDEWNIGRLRTILDLVEKESGITIEGVNTPYLYFGMWKTSFAWHTEDMDLYSINYLHFGEPKSWYSVPPEHGKRLERLAKGFFPGSAQSCEAFLRHKMTLISPLMLKKYGIPFDKVTQEAGEFMITFPYGYHAGFNHGFNCAESTNFATRRWIEYGKQAVLCSCRKDMVKISMDVFVRKFQPERYKLWKAGKDNTVIDHTLPTPEAAEFLKESELPPRAGNEEECPEEDMEGVEDGEEGDLKTSLAKHRIGTKRHRVCLEIPQEVSQSELFPKEDLSSEQYEMTECPAALAPVRPTHSSVRQVEDGLTFPDYSDSTEVKFEELKNVKLEEEDEEEEQAAAALDLSVNPASVGGRLVFSGSKKKSSSSLGSGSSRDSISSDSETSEPLSCRAQGQTGVLTVHSYAKGDGRVTVGEPCTRKKGSAARSFSERELAEVADEYMFSLEENKKSKGRRQPLSKLPRHHPLVLQECVSDDETSEQLTPEEEAEETEAWAKPLSQLWQNRPPNFEAEKEFNETMAQQAPHCAVCMIFQTYHQVEFGGFNQNCGNASDLAPQKQRTKPLIPEMCFTSTGCSTDINLSTPYLEEDGTSILVSCKKCSVRVHASCYGVPPAKASEDWMCSRCSANALEEDCCLCSLRGGALQRANDDRWVHVSCAVAILEARFVNIAERSPVDVSKIPLPRFKLKCIFCKKRRKRTAGCCVQCSHGRCPTAFHVSCAQAAGVMMQPDDWPFVVFITCFRHKIPNLERAKGALQSITAGQKVISKHKNGRFYQCEVVRLTTETFYEVNFDDGSFSDNLYPEDIVSQDCLQFGPPAEGEVVQVRWTDGQVYGAKFVASHPIQMYQVEFEDGSQLVVKRDDVYTLDEELPKRVKSRLSVASDMRFNEIFTEKEVKQEKKRQRVINSRYREDYIEPALYRAIME
For the molecule B5, the “H3k36 Demethylase Activity” value in the data set with H3K36me3 was “+”. Further, the “H3k9 Demethylase Activity” value in the data set on H3K9me3 is given as “+/−”.
